Measurements as given in the supplement of paper PMC10724198.
± gives the standard deviation of the averaged measurements.

Tests used:
Saccharomyces cerevisiae [1] = assay: protein stability index of tFT-peptide fusion (C-terminal peptide) (PSI (0-1 scale)); higher = more stable (slower turnover)
Description: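 MPS profiling in S. cerevisiae of the tFT-X12 degron library: putative degron peptides plus stable controls, 12 aa, fused to the C-terminus of a sfGFP-mCherry timer. Cells are FACS-sorted into 8 mCherry/sfGFP bins and deep-sequenced. PSI runs from 0 (unstable) to 1 (stable). Backgrounds are wild type, das1Δ and doa10Δ at 30 °C, and wild type, das1Δ, cdc34-1 and cdc53-1 at 37 °C; 2-3 technical replicates each.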

Saccharomyces cerevisiae [2] = assay: as above; conditions: genetic background: wild type; temperature: 30 C
[3] = genetic background: cdc34-1, temperature: 37 C
[4] = genetic background: cdc53-1, temperature: 37 C
[5] = genetic background: das1 deletion, temperature: 30 C
[6] = genetic background: das1 deletion, temperature: 37 C
[7] = genetic background: doa10 deletion, temperature: 30 C
[8] = genetic background: wild type, temperature: 30 C
[9] = genetic background: wild type, temperature: 37 C
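Note: PSI is a weighted mean of sequencing reads over stability bins, variants kept only with over 10 reads, mCherry proximal and sfGFP distal, peptide attached via GGGS linker.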

Row | Sequence | protein stability index (Saccharomyces cerevisiae [1]; [3]) | protein stability index (Saccharomyces cerevisiae [1]; [4]) | protein stability index (Saccharomyces cerevisiae [1]; [5]) | protein stability index (Saccharomyces cerevisiae [1]; [6]) | protein stability index (Saccharomyces cerevisiae [1]; [7]) | protein stability index (Saccharomyces cerevisiae [1]; [8]) | protein stability index (Saccharomyces cerevisiae [1]; [9]) | protein stability index (Saccharomyces cerevisiae [2])
1 | RRGGNIVWYCLV | 0.588 ± 0.025 | 0.694 ± 0.015 | 0.634 ± 0.0066 | 0.714 ± 0.011 | 0.125 ± 0.0088 | 0.148 ± 0.017 | 0.24 ± 0.0074 | 0.234 ± 0.017
2 | RRIILAGLFLIS | 0.586 ± 0.028 | 0.613 ± 0.029 | 0.437 ± 0.033 | 0.623 ± 0.046 | 0.332 ± 0.021 | 0.353 ± 0.014 | 0.537 ± 0.0093 | 0.403 ± 0.0097
3 | RRMGLRLFLLWM | 0.649 ± 0.045 | 0.657 ± 0.0097 | 0.534 ± 0.026 | 0.67 ± 0.015 | 0.354 ± 0.021 | 0.348 ± 0.032 | 0.539 ± 0.015 | 0.4517 ± 0.0011
4 | RSAVECRVTNIR | 0.701 ± 0.031 | 0.7227 ± 0.00094 | 0.637 ± 0.018 | 0.724 ± 0.01 | 0.639 ± 0.015 | 0.658 ± 0.036 | 0.715 ± 0.024 | 0.546 ± 0.08
5 | RSFSKRSFMFLC | 0.621 ± 0.025 | 0.728 ± 0.11 | 0.646 ± 0.018 | 0.734 ± 0.0094 | 0.154 ± 0.0079 | 0.172 ± 0.0087 | 0.227 ± 0.0064 | 0.263 ± 0.012
6 | RSNLSKSWHRIG | 0.538 ± 0.065 | 0.689 ± 0.014 | 0.645 ± 0.028 | 0.743 ± 0.015 | 0.101 ± 0.011 | 0.11 ± 0.029 | 0.212 ± 0.074 | 0.207 ± 0.038
7 | RTMLSNRIKSFI | 0.6235 ± 0.0026 | 0.701 ± 0.038 | 0.642 ± 0.014 | 0.723 ± 0.02 | 0.239 ± 0.0068 | 0.244 ± 0.021 | 0.519 ± 0.025 | 0.415 ± 0.014
8 | RVRRETRLRQIA | 0.597 ± 0.0087 | 0.732 ± 0.043 | 0.65 ± 0.024 | 0.71 ± 0.021 | 0.1423 ± 0.00049 | 0.147 ± 0.0031 | 0.269 ± 0.0076 | 0.27 ± 0.047
9 | RVVNRWGVCFLG | 0.6 ± 0.0065 | 0.7178 ± 0.0067 | 0.639 ± 0.014 | 0.733 ± 0.021 | 0.124 ± 0.014 | 0.131 ± 0.0093 | 0.199 ± 0.015 | 0.231 ± 0.0097
10 | RVWTTVFIIRAT | 0.595 ± 0.032 | 0.609 ± 0.055 | 0.493 ± 0.03 | 0.6146 ± 0.0043 | 0.216 ± 0.023 | 0.229 ± 0.024 | 0.424 ± 0.023 | 0.333 ± 0.062
11 | RYLHFASLLFAS | 0.658 ± 0.019 | 0.709 ± 0.0084 | 0.585 ± 0.012 | 0.729 ± 0.0093 | 0.179 ± 0.006 | 0.226 ± 0.035 | 0.52 ± 0.016 | 0.364 ± 0.014
12 | SDVLVVWVFFCR | 0.292 ± 0.0075 | 0.4196 ± 0.0033 | 0.26 ± 0.032 | 0.466 ± 0.013 | 0.216 ± 0.029 | 0.263 ± 0.037 | 0.435 ± 0.0063 | 0.405 ± 0.043
13 | SELLVHVVFWLA | 0.268 ± 0.013 | 0.438 ± 0.038 | 0.289 ± 0.03 | 0.463 ± 0.012 | 0.1383 ± 0.00086 | 0.176 ± 0.019 | 0.303 ± 0.011 | 0.247 ± 0.025
14 | SFAVSSDYLFII | 0.69 ± 0.099 | 0.788 ± 0.028 | 0.689 ± 0.034 | 0.808 ± 0.032 | 0.316 ± 0.037 | 0.361 ± 0.023 | 0.582 ± 0.01 | 0.401 ± 0.019
15 | SFCSFVFVTFVL | 0.4 ± 0.031 | 0.4842 ± 0.0023 | 0.321 ± 0.044 | 0.508 ± 0.022 | 0.317 ± 0.016 | 0.312 ± 0.02 | 0.52 ± 0.058 | 0.455 ± 0.033
16 | SFFCFFLSFFYL | 0.571 ± 0.027 | 0.53 ± 0.0091 | 0.471 ± 0.011 | 0.562 ± 0.018 | 0.475 ± 0.025 | 0.445 ± 0.013 | 0.539 ± 0.02 | 0.502 ± 0.015
17 | SFFSQAIPILAA | 0.0333 ± 0.0079 | 0.039 ± 0.0039 | 0.152 ± 0.027 | 0.115 ± 0.015 | 0.129 ± 0.0039 | 0.15 ± 0.021 | 0.0837 ± 0.023 | 0.225 ± 0.072
18 | SFLCILIFPFFP | 0.497 ± 0.051 | 0.6 ± 0.015 | 0.411 ± 0.02 | 0.6 ± 0.015 | 0.391 ± 0.011 | 0.408 ± 0.028 | 0.5623 ± 0.0044 | 0.469 ± 0.034
19 | SFSFRPCLLLFF | 0.32771 ± 1.1e-05 | 0.355 ± 0.0074 | 0.357 ± 0.036 | 0.51 ± 0.0096 | 0.38211 ± 0.00035 | 0.283 ± 0.033 | 0.417 ± 0.021 | 0.336 ± 0.099
20 | SFVFLVRRWLFV | 0.354 ± 0.071 | 0.582 ± 0.02 | 0.563 ± 0.011 | 0.622 ± 0.023 | 0.136 ± 0.0077 | 0.133 ± 0.017 | 0.159 ± 0.011 | 0.213 ± 0.025

Row | Sequence | protein stability index (Saccharomyces cerevisiae [1]; [3]) | protein stability index (Saccharomyces cerevisiae [1]; [4]) | protein stability index (Saccharomyces cerevisiae [1]; [5]) | protein stability index (Saccharomyces cerevisiae [1]; [6]) | protein stability index (Saccharomyces cerevisiae [1]; [7]) | protein stability index (Saccharomyces cerevisiae [1]; [8]) | protein stability index (Saccharomyces cerevisiae [1]; [9]) | protein stability index (Saccharomyces cerevisiae [2])
21 | SFYVCVPVLWLV | 0.248 ± 0.024 | 0.29 ± 0.036 | 0.27 ± 0.029 | 0.407 ± 0.0054 | 0.136 ± 0.0076 | 0.118 ± 0.015 | 0.146 ± 0.028 | 0.201 ± 0.0038
22 | SGRAWRLRMHVI | 0.663 ± 0.02 | 0.749 ± 0.011 | 0.661 ± 0.037 | 0.757 ± 0.018 | 0.263 ± 0.0029 | 0.269 ± 0.012 | 0.459 ± 0.041 | 0.406 ± 0.17
23 | SGRFRAFVLRSM | 0.692 ± 0.012 | 0.746 ± 0.01 | 0.646 ± 0.029 | 0.7 ± 0.036 | 0.272 ± 0.019 | 0.298 ± 0.035 | 0.56 ± 0.032 | 0.476 ± 0.0099
24 | SGRFRFVLLGLV | 0.558 ± 0.032 | 0.601 ± 0.008 | 0.455 ± 0.03 | 0.632 ± 0.00071 | 0.122 ± 0.023 | 0.156 ± 0.023 | 0.253 ± 0.0054 | 0.203 ± 0.021
25 | SGVVWFYIFCLS | 0.4729 ± 0.00067 | 0.535 ± 0.0018 | 0.322 ± 0.038 | 0.57 ± 0.015 | 0.254 ± 0.014 | 0.279 ± 0.043 | 0.494 ± 0.023 | 0.361 ± 0.011
26 | SINKLLILIKSI | 0.429 ± 0.026 | 0.618 ± 0.028 | 0.525 ± 0.03 | 0.629 ± 0.018 | 0.0798 ± 0.019 | 0.0738 ± 0.0087 | 0.112 ± 0.069 | 0.13 ± 0.028
27 | SIWVGSRFRWVV | 0.642 ± 0.0088 | 0.7361 ± 0.0011 | 0.665 ± 0.034 | 0.7748 ± 0.0015 | 0.134 ± 0.017 | 0.134 ± 0.021 | 0.344 ± 0.052 | 0.35 ± 0.062
28 | SLCELRCLLRVG | 0.573 ± 0.027 | 0.636 ± 0.022 | 0.522 ± 0.017 | 0.631 ± 0.0023 | 0.471 ± 0.018 | 0.481 ± 0.018 | 0.606 ± 0.013 | 0.473 ± 0.021
29 | SLCSSVQVWSVV | 0.7 ± 0.049 | 0.763 ± 0.024 | 0.612 ± 0.013 | 0.732 ± 0.011 | 0.5868 ± 0.0032 | 0.634 ± 0.037 | 0.716 ± 0.011 | 0.693 ± 0.027
30 | SLLFPLPRPLLD | 0.7 ± 0.013 | 0.754 ± 0.018 | 0.677 ± 0.015 | 0.719 ± 0.016 | 0.686 ± 0.014 | 0.672 ± 0.024 | 0.7183 ± 0.005 | 0.731 ± 0.016
31 | SLRSRSLRCRLS | 0.619 ± 0.056 | 0.755 ± 0.024 | 0.723 ± 0.0081 | 0.749 ± 0.031 | 0.288 ± 0.0071 | 0.297 ± 0.0095 | 0.489 ± 0.031 | 0.38 ± 0.005
32 | SPCLPRGVLFLA | 0.603 ± 0.055 | 0.7253 ± 0.004 | 0.667 ± 0.031 | 0.716 ± 0.005 | 0.2729 ± 0.0022 | 0.297 ± 0.022 | 0.437 ± 0.0099 | 0.367 ± 0.0063
33 | SPCLSWTLVLVL | 0.275 ± 0.013 | 0.324 ± 0.0061 | 0.215 ± 0.026 | 0.407 ± 0.0077 | 0.195 ± 0.0034 | 0.203 ± 0.016 | 0.345 ± 0.0051 | 0.302 ± 0.037
34 | SRLMLPLSPLVC | 0.41 ± 0.011 | 0.455 ± 0.0065 | 0.301 ± 0.045 | 0.5021 ± 0.0044 | 0.2762 ± 0.0016 | 0.313 ± 0.016 | 0.465 ± 0.0065 | 0.379 ± 0.045
35 | SRPLYVMICTRV | 0.4376 ± 0.00075 | 0.522 ± 0.035 | 0.327 ± 0.024 | 0.558 ± 0.018 | 0.246 ± 0.0034 | 0.287 ± 0.018 | 0.503 ± 0.022 | 0.386 ± 0.0086
36 | SRSYNSPSLYVC | 0.498 ± 0.061 | 0.6496 ± 0.0057 | 0.605 ± 0.029 | 0.712 ± 0.0089 | 0.0903 ± 0.0041 | 0.102 ± 0.016 | 0.109 ± 0.0097 | 0.147 ± 0.009
37 | SRVCVLTGISCA | 0.568 ± 0.011 | 0.606 ± 0.016 | 0.416 ± 0.029 | 0.6023 ± 0.0038 | 0.387 ± 0.013 | 0.421 ± 0.011 | 0.572 ± 0.013 | 0.473 ± 0.018
38 | SSLAKFQLISTY | 0.429 ± 0.0045 | 0.464 ± 0.011 | 0.316 ± 0.04 | 0.508 ± 0.049 | 0.267 ± 0.003 | 0.305 ± 0.016 | 0.46 ± 0.0088 | 0.394 ± 0.017
39 | SVFSFCLCVGVV | 0.285 ± 0.0083 | 0.363 ± 0.076 | 0.266 ± 0.028 | 0.402 ± 0.011 | 0.213 ± 0.014 | 0.253 ± 0.033 | 0.358 ± 0.0064 | 0.294 ± 0.066
